Source: PMC5816707

Key:
[1] = biological target: T1, TIA1 (Homo sapiens (cDNA from HEK293 cells), UniProt P31483 1-386); assay: EMSA
T1 sequence: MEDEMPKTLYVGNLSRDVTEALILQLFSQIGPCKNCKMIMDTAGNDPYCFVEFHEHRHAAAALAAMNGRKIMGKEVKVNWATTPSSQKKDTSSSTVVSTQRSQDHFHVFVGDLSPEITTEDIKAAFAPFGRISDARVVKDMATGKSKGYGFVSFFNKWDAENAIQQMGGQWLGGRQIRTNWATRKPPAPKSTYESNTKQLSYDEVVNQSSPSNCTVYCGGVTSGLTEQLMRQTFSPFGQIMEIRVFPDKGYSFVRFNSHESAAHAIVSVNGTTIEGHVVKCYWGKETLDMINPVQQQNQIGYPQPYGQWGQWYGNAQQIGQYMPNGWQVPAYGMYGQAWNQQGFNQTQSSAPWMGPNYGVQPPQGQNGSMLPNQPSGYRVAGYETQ

[2] = biological target: T2, TIAL1 (Homo sapiens (cDNA from HEK293 cells), UniProt Q01085 1-375); assay: EMSA
T2 sequence: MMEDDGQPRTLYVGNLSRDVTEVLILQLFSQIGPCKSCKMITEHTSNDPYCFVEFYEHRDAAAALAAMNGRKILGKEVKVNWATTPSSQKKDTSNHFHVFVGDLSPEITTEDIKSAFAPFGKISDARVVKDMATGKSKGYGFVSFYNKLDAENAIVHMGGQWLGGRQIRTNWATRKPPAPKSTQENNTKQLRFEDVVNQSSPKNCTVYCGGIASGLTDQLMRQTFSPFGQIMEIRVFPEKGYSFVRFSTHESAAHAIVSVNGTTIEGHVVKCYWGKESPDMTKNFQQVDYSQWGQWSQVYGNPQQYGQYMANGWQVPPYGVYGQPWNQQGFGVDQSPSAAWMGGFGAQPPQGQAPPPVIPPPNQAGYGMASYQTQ

B1: poly(A)18 (ssRNA)
RNA: AAAAAAAAAAAAAAAAAA
B1: no binding [1]; no binding [2].
